Measurements as given in article PMC12312386, “Multiple transactivation domains of EZH2 bind to the TAZ2 domain of p300 and stimulate the acetyltransferase function of p300” (Biochemical Journal, 2025).
Several values for one entry are separate records, joined by “and”; a condition that tells them apart may be missing. Equal entries are not always repeated.

T1: GST-EZH2_(TAD1) (aa 142-160 of EZH2) (human, UniProt Q15910 142-160)
T1 construct: EZH2, human, aa 142-160, made by deletion from the aa 142-231 construct in pGEX-6P-1; Dimeric in mass photometry (~70 kDa); Limits differ from the synthetic EZH2_(TAD1) peptide (142-154); source: E. coli Rosetta-2 (DE3) pLysS, purified (glutathione agarose, Ni-NTA)
T1 chain (looked up): DGTFIEELIKNYDGKVHGD

T2: GST-p300_(TAZ2) (human, UniProt Q09472 1722-1812, tryptophan substituted at A1723)
T2 construct: TAZ2 domain of human p300, aa 1722-1812, with a tryptophan substituted at A1723; pGEX-4T-1 vector with an additional TEV cleavage site; Dimeric in mass photometry (~80 kDa); also called GST-fusion of p300 TAZ2; source: E. coli Rosetta-2 (DE3) pLysS, purified (glutathione agarose, cation exchange or heparin)
T2 sequence (looked up): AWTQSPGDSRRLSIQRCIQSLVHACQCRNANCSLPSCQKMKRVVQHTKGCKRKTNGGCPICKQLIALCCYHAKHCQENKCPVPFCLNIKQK

B1: EZH2_(TAD3) peptide (aa 220-231 of EZH2) (peptide, UniProt Q15910 220-231, looked up)
peptide: SDKIFEAISSMF
notes: source: synthetic peptide (SynPeptide Co. Ltd.)
B2: p300 TAZ2 domain, untagged (p300_(TAZ2)) (domain or fragment, human, UniProt Q09472 1722-1812, looked up)
chain: T2 sequence (looked up)
notes: TAZ2 domain of human p300, aa 1722-1812, with a tryptophan substituted at A1723; Uniformly 15N-labeled for NMR, unlabeled in mass photometry; they are printed there only as p300_(TAZ2); also called 15N-labeled p300_(TAZ2); source: E. coli Rosetta-2 (DE3) pLysS, purified (glutathione agarose, TEV cleavage, cation exchange or heparin)
B3: EZH2_(TAD1) peptide (aa 142-154 of EZH2) (peptide, UniProt Q15910 142-154, looked up)
peptide: DGTFIEELIKNYD
notes: as for B1
B4: EZH2_(TAD1-TAD2-TAD3) (aa 142-231 of EZH2) with C-terminal 6xHis tag (domain or fragment)
chain: not shown
notes: EZH2, human, aa 142-231, holds TAD1, TAD2 and TAD3; pGEX-6P-1 vector; also called triple EZH2_(TAD1-TAD2-TAD3); source: E. coli Rosetta-2 (DE3) pLysS, purified (glutathione agarose, PreScission cleavage, Ni-NTA)
B5: EZH2_(TAD2) peptide (aa 167-185 of EZH2) (peptide, UniProt Q15910 167-185, looked up)
peptide: NDEIFVELVNALGQYNDDD
notes: as for B1

Assays:
Conditions in all cases: both partners purified
[1] = target: B2; assay: NMR titration; 1H,15N HSQC of 50–100 μM 15N-labeled p300_(TAZ2), unlabeled peptide titrated; 298 K; 50 mM MES pH 6.5, 150 mM NaCl, 5 mM DTT
[2] = target: T1, GST-EZH2_(TAD1) (aa 142-160 of EZH2); assay: mass photometry; 20 nM GST-EZH2_(TAD1) with p300_(TAZ2) (0.1 μM); room temperature; 50 mM Tris pH 7.5, 150 mM NaCl, 5 mM DTT
GST-p300_(TAZ2) = target: T2, GST-p300_(TAZ2); assay: mass photometry; 20 nM GST-p300_(TAZ2) with EZH2_(TAD1-TAD2) (5 μM) or EZH2_(TAD1-TAD2-TAD3) (1 μM); room temperature; 50 mM Tris pH 7.5, 150 mM NaCl, 5 mM DTT

Row | binding result [1] | Binder | further results
1 | binds | B1 | –
2 | – | B2 | stoichiometry N [2]: 1 p300_(TAZ2) per GST-EZH2_(TAD1) dimer and 2 p300_(TAZ2) per GST-EZH2_(TAD1) dimer
3 | binds | B3 | –
4 | – | B4 | stoichiometry N (GST-p300_(TAZ2)): 6 GST-p300_(TAZ2) per EZH2_(TAD1-TAD2-TAD3)
5 | binds | B5 | –
